Experimental data reported in patent US20210355194A1 (TWIST BIOSCIENCE, published 2021).
Where a chain is given by its changes, count along the chain named.

B1: variant 5-28 (Fc fusion)
VHH: EVQLVESGGGLVQPGGSLRLSCAASGGTFSVFAMGWFRQVPGKERELVAEITAGGSTYYADSVKGRFTISADNSKNTAYLQMNSLKPEDTAVYYCAVDGPFGWGQGTLVTVSS
B2: variant 5-35 (Fc fusion)
VHH: EVQLVESGGGLVQPGGSLRLSCAASGPTFSIYAMGWFRQAPGKERELVAGISWNGGSTNYADSVKGRFTISADNSKNTAYLQMNSLKPEDTAVYYCALRRRFGGQEWGQGTLVTVSS
B3: variant 5-32 (Fc fusion)
VHH: EVQLVESGGGLVQPGGSLRLSCAASGFTPDNYAMGWFRQAPGKEREFVAALGWSGVTTYHYYADSVKGRFTISADNSKNTAYLQMNSLKPEDTAVYYCASDESDAANWGQGTLVTVSS
B4: variant 5-13 (Fc fusion)
VHH: EVQLVESGGGLVQPGGSLRLSCAASGFTFDYYTMGWFRQAPGKEREFVAAIRSSGGLFYADSVKGRFTISADNSKNTAYLQMNSLKPEDTAVYYCAAYLDGYSGSWGQGTLVTVSS
B5: variant 5-60 (Fc fusion)
VHH: EVQLVESGGGLVQPGGSLRLSCAASGRSFSSHRMGWFRQAPGKEREFVAAIMWSGSHRNYADSVKGRFTISADNSKNTAYLQMNSLKPEDTAVYYCAAIAYEEGVYRWDWGQGTLVTVSS
B6: variant 6-2 (Fc fusion)
VHH: EVQLVESGGGLVQPGGSLRLSCAASGFTMSSSWMGWFRQAPGKEREFVTVISGVGTSYADSVKGRFTISADNSKNTAYLQMNSLKPEDTAVYYCARGPDSSGYGFDYWGQGTLVTVSS
B7: variant 5-59 (Fc fusion)
VHH: EVQLVESGGGLVQPGGSLRLSCAASGLTFSLYRMCWFRQAPGKEREEVSCISNIDGSTYYADSVKGRFTISADNSKNTAYLQMNSLKPEDTAVYYCAADLLGDSDYEPSSGFGWGQGTLVTVSS
B8: variant 5-68 (Fc fusion)
VHH: EVQLVESGGGLVQPGGSLRLSCAASGFTFDHYTMGWFRQAPGKEREFVAAISGSENVTSYADSVKGRFTISADNSKNTAYLQMNSLKPEDTAVYYCAAEPYIPVRTMRHMTFLTWGQGTLVTVSS
B9: variant 5-47 (Fc fusion)
VHH: EVQLVESGGGLVQPGGSLRLSCAASGFTFGSYDMGWFRQAPGKEREFVTAINWSGARTAYADSVKGRFTISADNSKNTAYLQMNSLKPEDTAVYYCAARSVYSYEYNWGQGTLVTVSS
B10: variant 5-15 (Fc fusion)
VHH: EVQLVESGGGLVQPGGSLRLSCAASGFTFDGAAMGWFRQAPGKEREFVATIRWTNSTDYADSVKGRFTISADNSKNTAYLQMNSLKPEDTAVYYCARGRYGIVERWGQGTLVTVSS
B11: variant 5-20 (Fc fusion)
VHH: EVQLVESGGGLVQPGGSLRLSCAASGRTIVPYTMGWFRQAPGKERELVAAISPSAFTEYADSVKGRFTISADNSKNTAYLQMNSLKPEDTAVYYCAARRWGYDWGQGTLVTVSS
notes: VHH-Fc
B12: variant 5-65 (Fc fusion)
VHH: EVQLVESGGGLVQPGGSLRLSCAASGNIDRLYAMGWFRQAPGKEREGVAAIDSDGSTDYADSVKGRFTISADNSKNTAYLQMNSLKPEDTAVYYCAALIDYGLGFPIEWGQGTLVTVSS
B13: variant 6-5 (Fc fusion)
VHH: EVQLVESGGGLVQPGGSLRLSCAASGRTFTMGWFRQAPGKEREFVASTNSAGSTNYADSVNGRFTISADNSKNTAYLQMNSLKPEDTAVYYCTTVDQYFDYWGQGTLVTVSS
B14: variant 5-21 (Fc fusion)
VHH: EVQLVESGGGLVQPGGSLRLSCAASGGTFTTYHMGWFRQAPGKEREFVAHISTGGATNYADSVKGRFTISADNSKNTAYLQMNSLKPEDTAVYYCATFPAIVTDSDYDLGNDWGQGTLVTVSS
B15: variant 5-23 (Fc fusion)
VHH: EVQLVESGGGLVQPGGSLRLSCAASGSIFSIDVMGWFRQAPGKEREFVAAISWSGESTLYADSVKGRFTISADNSKNTAYLQMNSLKPEDTAVYYCAAFDGYSGSDWGQGTLVTVSS
B16: variant 5-3 (Fc fusion)
VHH: B15 VHH with A50G, E56D, S103T
B17: variant 5-66 (Fc fusion)
VHH: B15 VHH with S27N, I28T, S30T, D32N, S52N, S54N, E56G, S57T, S105I
B18: variant 5-55 (Fc fusion)
VHH: EVQLVESGGGLVQPGGSLRLSCAASGIDVNRNAMGWFRQAPGKEREFVAAITWSGGWRYYADSVKGRFTISADNSKNTAYLQMNSLKPEDTAVYYCATTFGDAGIPDQYDFGWGQGTLVTVSS
B19: variant 5-37 (Fc fusion)
VHH: EVQLVESGGGLVQPGGSLRLSCAASGSTFSINAMGWFRQAPGKEREFVGGISRSGATTNYADSVKGRFTISADNSKNTAYLQMNSLKPEDTAVYYCAADGVPEYSDYASGPVWGQGTLVTVSS
notes: VHH-Fc
B20: variant 5-67 (Fc fusion)
VHH: EVQLVESGGGLVQPGGSLRLSCAASGFNVNDYAMGWFRQAPGKEREFVAGITSSVGVTNYADSVKGRFTISADNSKNTAYLQMNSLKPEDTAVYYCAADIFFVNWGRGTLVTVSS
B21: variant 5-1 (Fc fusion)
VHH: EVQLVESGGGLVQPGGSLRLSCAASGGTFSSIGMGWFRQAPGKEREFVAAISWDGGATAYADSVKGRFTISADNSKNTAYLQMNSLKPEDTAVYYCAKEDVGKPFDWGQGTLVTVSS
notes: VHH-Fc
B22: variant 6-1 (Fc fusion)
VHH: EVQLVESGGGLVQPGGSLRLSCAASGRTFGNYNMGWFRQAPGKEREFVATINSLGGTSYADSVKGRFTISADNSKNTAYLQMNSLKPEDTAVYYCARVDYYMDVWGQGTLVTVSS
B23: variant 5-63 (Fc fusion)
VHH: EVQLVESGGGLVQPGGSLRLSCAASGFSLDYYDMGWFRQAPGKEREFVAALGWSGGSTDYADSVKGRFTISADNSKNTAYLQMNSLKPEDTAVYYCAAGNGGRYGIVERWGQGTLVTVSS
B24: variant 5-64 (Fc fusion)
VHH: EVQLVESGGGLVQPGGSLRLSCAASGTSISNRVMGWFRQAPGKERELVARIYTGGDTLYADSVKGRFTISADNSKNTAYLQMNSLKPEDTAVYYCAARKIYRSLSYYGDYDWGQGTLVTVSS
B25: variant 5-29 (Fc fusion)
VHH: EVQLVESGGGLVQPGGSLRLSCAASGFTFDDYPMGWFRQAPGKEREGVASVLRGGYTWYADSVKGRFTISADNSKNTAYLQMNSLKPEDTAVYYCAKDWATGLAWGQGTLVTVSS
B26: variant 5-52 (Fc fusion)
VHH: EVQLVESGGGLVQPGGSLRLSCAASGEKFSDHWMGWFRQAPGKEREFVATITFSGARTAYADSVKGRFTISADNSKNTAYLQMNSLKPEDTAVYYCAALIKPSSTDRIFEEWGQGTLVTVSS
B27: variant 6-4 (Fc fusion)
VHH: EVQLVESGGGLVQPGGSLRLSCAASGFTRDYYTMGWFRQAPGKEREFVAAISRSGSLTSYADSVKGRFTISADNSKNTAYLQMNSLKPEDTAVYYCANLAYYDSSGYYDYWGQGTLVTVSS
B28: variant 5-17 (Fc fusion)
VHH: EVQLVESGGGLVQPGGSLRLSCAASGPTFSIYAMGWFRQAPGKEREFVAGIRWSDVYTQYADSVKGRFTISADNSKNTAYLQMNSLKPEDTAVYYCALDIDYRDWGQGTLVTVSS
B29: variant 5-39 (Fc fusion)
VHH: B28 VHH with P27V, F29L, S30D, I31L, S54T, V56A, Q59E, L98V
B30: variant 5-16 (Fc fusion)
VHH: EVQLVESGGGLVQPGGSLRLSCAASGRTHSIYPMGWFRQAPGKERELVAAIHSGGATVYADSVKGRFTISADNSKNTAYLQMNSLKPEDTAVYYCAARRWIPPGPIWGQGTLVTVSS
B31: variant 5-42 (Fc fusion)
VHH: EVQLVESGGGLVQPGGSLRLSCAASGFTPDDYAMGWFRQAPGKEREFVASIGYSGRSNSYNYYADSVKGRFTISADNSKNTAYLQMNSLKPEDTAVYYCAIAHGSSTYNWGQGTLVTVSS
B32: variant 5-53 (Fc fusion)
VHH: EVQLVESGGGLVQPGGSLRLSCAASGLTVVPYAMGWFRQAPGKEREFVAAIRRSAVTNYADSVKGRFTIIADNSKNTAYLLMNSLKPEDTAVYYCAARRWGYHYWGQGTLVTVSS
B33: variant 5-49 (Fc fusion)
VHH: EVQLVESGGGLVQPGGSLRLSCAASGRTSTVNGMGWFRQAPGKEREFVASISQSGAATAYADSVKGRFTISADNSKNTAYLQMNSLKPEDTAVYYCAADRTYSYSSTGYYWGQGTLVTVSS
B34: variant 5-22 (Fc fusion)
VHH: EVQLVESGGGLVQPGGSLRLSCAASGFTFNVFAMGWFRQAPGKEREFVAAINWSDSRTDYADSVKGRFTISADNSKNTAYLQMNSLKPEDTAVYYCASGSDNRARELSRYEYVWGQGTLVTVSS
B35: variant 5-56 (Fc fusion)
VHH: EVQLVESGGGLVQPGGSLRLSCAASGRTFSSNMGWFRQAPGKEREFVARIFGGDRTLYADSVKGRFTISADNSKNTAYLQMNSLKPEDTAVYYCADINGDWGQGTLVTVSS
B36: variant 5-27 (Fc fusion)
VHH: EVQLVESGGGLVQPGGSLRLSCAASGRANSINWMGWFRQAPGKEREFVATITPGGNTNYADSVKGRFTISADNSKNTAYLQMNSLKPEDTAVYYCAAAAGSTWYGTLYEYDWGQGTLVTVSS

Target: CV S-protein construct 6 trimer TP31001F (SARS-CoV-2, UniProt P0DTC2 14-1208)
Experiment: SPR

Binder | Kd [nM]
B1 | 1
B2 | 16
B3 | 0.1
B4 | 3.8
B5 | 0.8
B6 | 1.2
B7 | 6.4
B8 | 4.8
B9 | 0.7
B10 | 2.3
B11 | 1.1
B12 | 421
B13 | 0.8
B14 | 10
B15 | 4.2
B16 | 5.6
B17 | 98.9
B18 | 0.6

Binder | Kd [nM]
B19 | 1.8
B20 | 1
B21 | 0.4
B22 | 1.2
B23 | 0.4
B24 | 221
B25 | 1
B26 | 0.9
B27 | 0.5
B28 | 18.9
B29 | 37.6
B30 | 1.9
B31 | 0.6
B32 | 684
B33 | 3.4
B34 | 7.2
B35 | 2.8
B36 | 110
